{
  "source": "patent US20190201496A1",
  "about": "(published 2019)",
  "binders": {"B1": {"name": "hAFP N-His (protein)", "chain": "RTLHRNEYGIASILDSYQCTAEISLADLATIFFAQFVQEATYKEVSKMVKDALTAIEKPTGDEQSSGCLENQLPAFLEELCHEKEILEKYGHSDCCSQSEEGRHNCFLAHKKPTPASIPLFQVPEPVTSCEAYEEDRETFMNKFIYEIARRHPFLYAPTILLWAARYDKIIPSCCKAENAVECFQTKAATVTKELRESSLLNQHACAVMKNFGTRTFQAITVTKLSQKFTKVNFTEIQKLVLDVAHVHEHCCRGDVLDCLQDGEKIMSYICSQQDTLSNKITECCKLTTLERGQCIIHAENDEKPEGLSPNLNRFLGDRDFNQFSSGEKNIFLASFVHEYSRRHPQLAVSVILRVAKGYQELLEKCFQTENPLECQDKGEEELQKYIQESQALAKRSCGLFQKLGEYYLQNAFLVAYTKKAPQLTSSELMAITRKMAATAATCCQLSEDKLLACGEGAADIIIGHLCIRHEMTPVNPGVGQCCTSSYANRRPCFSSLVVDETYVPPAFSDDKFIFHKDLCQAQGVALQTMKQEFLINLVKQKPQITEEQLEAVIADFSGLLEKCCQGQEQEVCFAEEGQKLISKTRAALGV"}, "B2": {"name": "AFP (ligand)", "chain": "RTLHRNEYGIASILDSYQCTAEISLADLATIFFAQFVQEATYKEVSKMVKDALTAIEKPTGDEQSSGCLENQLPAFLEELCHEKEILEKYGHSDCCSQSEEGRHNCFLAHKKPTPASIPLFQVPEPVTSCEAYEEDRETFMNKFIYEIARRHPFLYAPTILLWAARYDKIIPSCCKAENAVECFQTKAATVTKELRESSLLNQHACAVMKNFGTRTFQAITVTKLSQKFTKVNFTEIQKLVLDVAHVHEHCCRGDVLDCLQDGEKIMSYICSQQDTLSNKITECCKLTTLERGQCIIHAENDEKPEGLSPNLNRFLGDRDFNQFSSGEKNIFLASFVHEYSRRHPQLAVSVILRVAKGYQELLEKCFQTENPLECQDKGEEELQKYIQESQALAKRSCGLFQKLGEYYLQNAFLVAYTKKAPQLTSSELMAITRKMAATAATCCQLSEDKLLACGEGAADIIIGHLCIRHEMTPVNPGVGQCCTSSYANRRPCFSSLVVDETYVPPAFSDDKFIFHKDLCQAQGVALQTMKQEFLINLVKQKPQITEEQLEAVIADFSGLLEKCCQGQEQEVCFAEEGQKLISKTRAALGV"}, "B3": {"name": "human AFP derived from cord blood (ligand)", "chain": "RTLHRNEYGIASILDSYQCTAEISLADLATIFFAQFVQEATYKEVSKMVKDALTAIEKPTGDEQSSGCLENQLPAFLEELCHEKEILEKYGHSDCCSQSEEGRHNCFLAHKKPTPASIPLFQVPEPVTSCEAYEEDRETFMNKFIYEIARRHPFLYAPTILLWAARYDKIIPSCCKAENAVECFQTKAATVTKELRESSLLNQHACAVMKNFGTRTFQAITVTKLSQKFTKVNFTEIQKLVLDVAHVHEHCCRGDVLDCLQDGEKIMSYICSQQDTLSNKITECCKLTTLERGQCIIHAENDEKPEGLSPNLNRFLGDRDFNQFSSGEKNIFLASFVHEYSRRHPQLAVSVILRVAKGYQELLEKCFQTENPLECQDKGEEELQKYIQESQALAKRSCGLFQKLGEYYLQNAFLVAYTKKAPQLTSSELMAITRKMAATAATCCQLSEDKLLACGEGAADIIIGHLCIRHEMTPVNPGVGQCCTSSYANRRPCFSSLVVDETYVPPAFSDDKFIFHKDLCQAQGVALQTMKQEFLINLVKQKPQITEEQLEAVIADFSGLLEKCCQGQEQEVCFAEEGQKLISKTRAALGV"}, "B4": {"name": "hAFP cord (ligand)", "chain": "RTLHRNEYGIASILDSYQCTAEISLADLATIFFAQFVQEATYKEVSKMVKDALTAIEKPTGDEQSSGCLENQLPAFLEELCHEKEILEKYGHSDCCSQSEEGRHNCFLAHKKPTPASIPLFQVPEPVTSCEAYEEDRETFMNKFIYEIARRHPFLYAPTILLWAARYDKIIPSCCKAENAVECFQTKAATVTKELRESSLLNQHACAVMKNFGTRTFQAITVTKLSQKFTKVNFTEIQKLVLDVAHVHEHCCRGDVLDCLQDGEKIMSYICSQQDTLSNKITECCKLTTLERGQCIIHAENDEKPEGLSPNLNRFLGDRDFNQFSSGEKNIFLASFVHEYSRRHPQLAVSVILRVAKGYQELLEKCFQTENPLECQDKGEEELQKYIQESQALAKRSCGLFQKLGEYYLQNAFLVAYTKKAPQLTSSELMAITRKMAATAATCCQLSEDKLLACGEGAADIIIGHLCIRHEMTPVNPGVGQCCTSSYANRRPCFSSLVVDETYVPPAFSDDKFIFHKDLCQAQGVALQTMKQEFLINLVKQKPQITEEQLEAVIADFSGLLEKCCQGQEQEVCFAEEGQKLISKTRAALGV"}, "B5": {"name": "human alpha-fetoprotein (AFP) (ligand)", "chain": "RTLHRNEYGIASILDSYQCTAEISLADLATIFFAQFVQEATYKEVSKMVKDALTAIEKPTGDEQSSGCLENQLPAFLEELCHEKEILEKYGHSDCCSQSEEGRHNCFLAHKKPTPASIPLFQVPEPVTSCEAYEEDRETFMNKFIYEIARRHPFLYAPTILLWAARYDKIIPSCCKAENAVECFQTKAATVTKELRESSLLNQHACAVMKNFGTRTFQAITVTKLSQKFTKVNFTEIQKLVLDVAHVHEHCCRGDVLDCLQDGEKIMSYICSQQDTLSNKITECCKLTTLERGQCIIHAENDEKPEGLSPNLNRFLGDRDFNQFSSGEKNIFLASFVHEYSRRHPQLAVSVILRVAKGYQELLEKCFQTENPLECQDKGEEELQKYIQESQALAKRSCGLFQKLGEYYLQNAFLVAYTKKAPQLTSSELMAITRKMAATAATCCQLSEDKLLACGEGAADIIIGHLCIRHEMTPVNPGVGQCCTSSYANRRPCFSSLVVDETYVPPAFSDDKFIFHKDLCQAQGVALQTMKQEFLINLVKQKPQITEEQLEAVIADFSGLLEKCCQGQEQEVCFAEEGQKLISKTRAALGV"}},
  "assay_in_all_cases": "SPR; pH 6",
  "key": {"human β2-microglobulin [1]": {"biological_target": "T1, human β2-microglobulin (UniProt P61769 21-119)", "T1 sequence (P61769 21-119)": "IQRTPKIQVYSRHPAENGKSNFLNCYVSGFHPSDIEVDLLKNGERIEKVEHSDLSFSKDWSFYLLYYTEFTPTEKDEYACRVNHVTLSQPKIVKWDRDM"}, "HLA-A2:01": {"biological_target": "T2, HLA-A2:01 (human, UniProt A*02:01, biotinylated (site not stated))", "T2 chain": "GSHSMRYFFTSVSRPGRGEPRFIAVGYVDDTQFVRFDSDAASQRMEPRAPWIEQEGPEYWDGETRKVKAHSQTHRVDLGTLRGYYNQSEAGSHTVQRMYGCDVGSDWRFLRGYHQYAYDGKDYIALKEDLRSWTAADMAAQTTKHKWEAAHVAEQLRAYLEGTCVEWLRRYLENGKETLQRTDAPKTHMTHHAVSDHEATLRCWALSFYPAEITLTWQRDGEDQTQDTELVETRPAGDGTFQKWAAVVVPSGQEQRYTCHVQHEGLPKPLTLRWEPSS"}, "mβ2m": {"biological_target": "mβ2m"}, "human β2-microglobulin [2]": {"biological_target": "T1, human β2-microglobulin", "remark": "listed apart in the source"}},
  "note": "Where two headings read alike, the source gives them in different places.",
  "data": [
    {"binder": "B1", "values": [
      {"measurement": "Kd", "setting": "human β2-microglobulin [1]", "result": 96.9, "unit": "nM"}
    ]},
    {"binder": "B2", "values": [
      {"measurement": "Kd", "setting": "HLA-A2:01", "result": 35.9, "unit": "nM"}
    ]},
    {"binder": "B3", "values": [
      {"measurement": "Kd", "setting": "human β2-microglobulin [1]", "result": 193, "unit": "nM"}
    ]},
    {"binder": "B4", "values": [
      {"measurement": "Kd", "setting": "mβ2m", "result": 167, "unit": "nM"}
    ]},
    {"binder": "B5", "values": [
      {"measurement": "Kd", "setting": "human β2-microglobulin [2]", "result": 125, "unit": "nM"}
    ]}
  ]
}
